Results taken from paper PMC5844793 (Bioorganic & medicinal chemistry, 2017).
Entries after “also recorded” stand apart in the source; their conditions may differ. Like-named read-outs stand apart in the source and are kept apart here. *1 amine or outer side, *2 acyl side, *3 side chain or, on linkers, in order; H or OH if unused. Bridges are numbered along the chain shown (N, C = ends). The star is where a group is joined. fluorescein = fluorescein: a label attached as NHS-fluorescein acylation on the lysine side chain (K*); pXylylene = c1cc(C[*:2])ccc1C[*:1]; Cysteamide = C(CS[*:3])N[*:1]; 4‑pentynyl = C#CCCC*

T1: cNPF1Flu
T1 chain: cyclo(YNPFEEGK(fluorescein))

T2: cNPF1 (backbone cyclic)
T2 chain: YNPFEEGG

T3: 4-OX (bridge 1-C; not fully specified (bridges))
T3 chain: {4‑pentynyl}-CNPFEE-Cysteamide

T4: 1-MX (thioether 1-C via meta‑xylene)
T4 chain: {4‑pentynyl}-CYNPFEE-Cysteamide

T5: 4-MX (bridge 1-C; not fully specified (bridges))
T5 chain: {4‑pentynyl}-CNPFEE-Cysteamide

T6: 5-OX (linker 1-6 via ortho‑xylene (inferred))
T6 chain: Ac-CNPFEC-OH

T7: 1-PX (thioether 1-C via pXylylene (inferred))
T7 chain: {4‑pentynyl}-CYNPFEE-Cysteamide

T8: 3-OX (bridge 1-C; not fully specified (bridges))
T8 chain: {4‑pentynyl}-CNPFE-Cysteamide

T9: 4-PX (bridge 1-C; not fully specified (bridges))
T9 chain: {4‑pentynyl}-CNPFEE-Cysteamide

B1: EHD1-EH EH domain (protein)
chain: VGKDKPTYDEIFYTLSPVNGKITGANAKKEMVKSKLPNTVLGKIWKLADVDKDGLLDDEEFALANHLIKVKLEGHELPADLPPHLVPPSKRRHE

Columns and labels:
HeLa cells = experiment: Cell-based transferrin; conditions: 50 μM during 60-min pulse and 30-min chase
Flu-5-OX [1] = target: Flu-5-OX
Flu-1-PX [2] = target: Flu-1-PX
Flu-1-PX [3] = target: Flu-1-PX; remark: listed apart in the source
Flu-3-OX [4] = target: Flu-3-OX
cNPF1Flu = target: T1, cNPF1Flu; experiment: fluorescence polarization
Flu-4-PX [5] = target: Flu-4-PX
Flu-5-OX [6] = target: Flu-5-OX; remark: listed apart in the source
Flu-4-PX [7] = target: Flu-4-PX; remark: listed apart in the source
cNPF1 = target: T2, cNPF1; experiment: fluorescence polarization competition
4-OX = target: T3, 4-OX; experiment: fluorescence polarization competition
1-MX = target: T4, 1-MX; experiment: fluorescence polarization competition
4-MX = target: T5, 4-MX; experiment: fluorescence polarization competition
5-OX = target: T6, 5-OX; experiment: fluorescence polarization competition
1-PX = target: T7, 1-PX; experiment: fluorescence polarization competition
3-OX = target: T8, 3-OX; experiment: fluorescence polarization competition
4-PX = target: T9, 4-PX; experiment: fluorescence polarization competition
Flu-3-OX [8] = target: Flu-3-OX; remark: listed apart in the source

Row | Molecule | effect on trafficking/recycling of Tf-488 (HeLa cells) | Kd (Flu-5-OX [1]) [µM] | Kd (Flu-1-PX [2]) [µM] | Kd (Flu-1-PX [3]) [µM] | Kd (Flu-3-OX [4]) [µM] | Kd (cNPF1Flu) [µM] | Kd (Flu-4-PX [5]) [µM] | Kd (Flu-5-OX [6]) [µM] | Kd (Flu-4-PX [7]) [µM] | IC50 (cNPF1) [µM] | IC50 (4-OX) [µM] | IC50 (1-MX) [µM] | IC50 (4-MX) [µM] | IC50 (5-OX) [µM] | IC50 (1-PX) [µM] | IC50 (3-OX) [µM] | IC50 (4-PX) [µM] | Kd (Flu-3-OX [8]) [µM]
1 | COc1cc(NC(C)CCCN)c2ncccc2c1 (stereo not drawn) [primaquine] | increased signal following the chase, consistent with impaired recycling of internalized Tf-488; also recorded: inhibition of recycling |  |  |  |  |  |  |  |  |  |  |  |  |  |  |  |  | 
2 | B1 |  | 7.3 | 1.1 | 6 | 14.6 | 3 | 8.1 | 1.6 | 1.8 | 55.5 | 62.8 | 68.8 | 88.1 | 34 | 27.1 | 76.5 | 38.9 | 4.5
